The source of these data is US20250340643A1.

In assay [1] the target is CTLA-4 (as used in the CTLA-4 binding assay) (human) (UniProt P16410). The experiment in a line: CTLA-4 binding relative to tremelimumab Reference Standard; method not named for this table (competitive ELISA or SPR per the methods).
The target of assay [2] is CTLA4 on the cells of the reporter gene bioassay (human) (UniProt P16410). The experiment in a line: cell-based or functional assay.
The target of the next assay is recombinant FcRn (UniProt P55899). Put plainly: SPR, recombinant FcRn immobilized on the sensor; relative to Reference Standard. (Surface plasmon resonance follows binding to a sensor surface in real time, without labels.)
Sequence of recombinant FcRn (P55899 24-297 limits assumed, form in doubt, chain 1 of 2): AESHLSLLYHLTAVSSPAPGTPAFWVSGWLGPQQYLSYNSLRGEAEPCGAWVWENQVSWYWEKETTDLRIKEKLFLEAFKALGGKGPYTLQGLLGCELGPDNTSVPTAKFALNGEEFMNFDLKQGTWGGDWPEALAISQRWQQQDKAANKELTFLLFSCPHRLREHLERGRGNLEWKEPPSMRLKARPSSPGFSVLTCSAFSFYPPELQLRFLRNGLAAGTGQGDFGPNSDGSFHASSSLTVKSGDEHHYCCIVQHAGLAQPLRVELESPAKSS
Sequence of recombinant FcRn (chain, as listed by the source limits assumed, form in doubt, chain 2 of 2): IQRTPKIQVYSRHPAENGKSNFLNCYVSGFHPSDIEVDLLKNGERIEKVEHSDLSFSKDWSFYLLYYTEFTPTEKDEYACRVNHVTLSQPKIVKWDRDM

Sequence of CTLA4 on the cells of the reporter gene bioassay (human) (P16410 36-223): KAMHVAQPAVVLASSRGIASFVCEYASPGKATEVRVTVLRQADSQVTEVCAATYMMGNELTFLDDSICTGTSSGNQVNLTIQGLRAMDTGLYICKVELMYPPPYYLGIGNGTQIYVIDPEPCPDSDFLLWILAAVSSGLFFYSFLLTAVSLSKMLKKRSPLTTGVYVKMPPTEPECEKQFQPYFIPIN
Sequence of CTLA-4 (as used in the CTLA-4 binding assay) (human) (P16410 36-161 limits assumed): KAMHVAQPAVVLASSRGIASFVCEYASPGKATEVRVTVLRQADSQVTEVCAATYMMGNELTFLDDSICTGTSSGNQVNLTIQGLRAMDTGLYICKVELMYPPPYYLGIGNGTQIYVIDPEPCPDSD

As for “Tremelimumab IEC Fraction D (acidic peak 1), after pH 9 for 7 days (antibody)”, the Rel. CTLA-4 Binding (%) in assay [1] was determined as 62%. Besides, the Rel. Potency (%) (reporter gene bioassay) in assay [2] came out at 78%. Further, in the assay with recombinant FcRn, the Rel. FcRn Binding (%) was 95%.
